Reference: paper PMC8117407

Target: mXFP-TpoR (thrombopoietin receptor N-terminally fused to nonfluorescent mEGFP Tyr66Phe) (UniProt P40238)
Assay: live-cell micropatterning with FRAP

fold reduction of binding stability against JAK2 FS wt: 20 fold
Substance: JAK2 FS L224E (domain or fragment)
